Experimental data from patent US12599570B2, “Biodegradable extended release microsphere-hydrogel ocular drug delivery system and method” (priority 2015, dated 2026).
Several values for one entry are separate records, joined by “and”; a condition that tells them apart may be missing. Identical values can stand only once.

Assays:
[1] = Microsphere diameter by light microscopy and ImageJ; format: physicochemical; conditions: drug-loaded microspheres, Alone
From the text: To measure microsphere diameter, microspheres were fabricated as described above with non-radiolabeled drug. A sample was suspended in ddH2O and imaged with a microscope (×20 objective, Carl Zeiss, Germany).

[2] = Encapsulation efficiency of iodine-125 labelled anti-VEGF by gamma counter; format: physicochemical
Experimental: (§1) Labeled proteins were lyophilized, weighed, and dissolved in 1× phosphate-buffered saline (PBS, pH 7.4) to create stock solutions of 10 mg/mL for each protein, which were stored at −80° C.
For each anti-VEGF agent, encapsulation efficiency (EE) was determined from the radioactivity measured using a gamma counter (Cobra-II Auto-Gamma, Packard Instrument Co., Meriden, CT) before and after microsphere preparation. EE was defined as the percent-drug within the microspheres relative to the theoretical loading amount.

[3] = In vitro release of anti-VEGF from microspheres and microsphere-hydrogel DDS (PBS, 37 C); format: physicochemical; conditions: for Initial Burst Percent: drug released within first 24 hours; for extension of release by hydrogel: microspheres in hydrogel versus alone; for reduction of initial burst by hydrogel: microspheres in hydrogel versus microspheres alone; for steady release rate: Days 7-196; for duration of release: microspheres suspended in hydrogel
Experimental: as §1
Release of anti-VEGF agents was determined using a separation method also described in Osswald C. R. et al. Briefly, 15 mg of microspheres and 1 mL of the DDS (15 mg microspheres in 1 mL hydrogel) were suspended in 1.5 mL of 1×PBS to ensure detectable levels of anti-VEGF concentration throughout release. Release profiles were conducted at 37° C. under mild agitation and at predetermined intervals, 1 mL of supernatant was removed after a brief centrifugation and replaced with an equal volume of fresh buffer. Supernatants were read using a gamma counter (Packard). Cumulative release was calculated as a percent of encapsulated drug and was considered complete when the microspheres had completely degraded based on visual inspection. The IB was defined as drug released within the first 24 hours.

retina [4] = system: retina; set-up: species or system Long-Evans rats; conditions: rat, in vivo
Experimental: (§2) All animal procedures were in accordance with protocols approved by the Institutional Animal Care and Use Committee at the Illinois Institute of Technology, and with the principles embodied in the statement on the use of animals in ophthalmic and vision research adopted by the Association for Research in Vision and Ophthalmology. Long-Evans male rats (1-3 months, 300-350 g) were purchased from Harlan Laboratories (Indianapolis, IN, USA). Animals were anesthetized using 80 mg/kg of ketamine hydrochloride (Fort Dodge Animal Health, Fort Dodge, Iowa, USA) and 10 mg/kg xylazine (AnaSed® Injection, Akorn, Inc., Decatur, IL, USA) via intraperitoneal (IP) injection. Proparacaine drops (Bausch and Lomb, Rochester, NY, USA) were used to anesthetize the corneas throughout the procedure and pupils were dilated using phenylephrine (Bausch and Lomb) and atropine drops (Bausch and Lomb). Heart rate and blood oxygen saturation were monitored with a PulseOximeter (8500AV; Nonin Medical Inc., Plymouth, MN, USA). Animals were placed on a custom-built heated stage and monitored to maintain a core body temperature of 37° C.
Animals were separated into six groups to determine the ability of the DDS of this invention to treat CNV. For analysis purposes, lesions were considered independent within each treatment group and each group contained two rats for a total of four eyes and up to 24 lesions per treatment group. […] All IVT injections were 5 μL and performed immediately after CNV induction.
The corneal electroretinogram (ERG) is a non-invasive measurement that represents the overall electrical activity of the retina in response to a stimulus flash. It is routinely used to assess retinal cellular activity and in toxicology studies. Each component of the ERG can be used to assess different retinal cell types and any alterations in the function of the retina due to the DDS would appear as changes in amplitude or sensitivity of various ERG components. Under scotopic conditions, the ERG has two important components: the a-wave and b-wave. The rising edge of the negative a-wave is generated by the photoreceptors in the outer retina; the positive b-wave is generated primarily by the bipolar cells and/or Müller cells. Another component of the ERG is the c-wave, which originates in the RPE and can be used to assess the functional integrity of the photoreceptors, the RPE cells, and the interactions between them; however, for the purposes of this research, the c-wave was not recorded or analyzed.
Under dim red light prior to and at each time point after CNV induction and DDS injection, ERG experiments were performed under scotopic conditions, with animals dark-adapted overnight prior to the experiment. Electroretinograms, in response to the full-field Ganzfeld stimulation, were recorded by a gold wire loop placed on the cornea. The reference and ground electrodes were 30 G platinum subdermal needle electrodes ([…]™ F-E2, Grass Products, Natus Neurology, Warwick, RI, USA) inserted into the cheek and nape of the neck, respectively. A-wave and b-wave intensity responses were recorded by presenting single flashes of increasing intensity (5×10^−4 to 305.7 sc cd·s·m^−2) and allowing the eye to dark adapt for 1 min after each flash. The intensity-response values for the a-wave and b-wave were fit with the Naka-Rushton equation, to determine a half-saturation intensity of the responses and maximal response.
The parameter values obtained from the Naka-Rushton analyses and IOP measurements were compared using the paired t-test verses control. […] Unless otherwise noted, significance represents p<0.05. All values are reported as sample mean±standard error of the mean.

laser-induced CNV = assay: Laser-induced CNV rat model, lesion area from late-phase FA images (multi-Otsu thresholding); format: in vivo, Long-Evans rats; conditions: 5 μL IVT immediately after CNV induction, Weeks 1-12
Experimental: as §2, with “Proparacaine drops (Bausch and Lomb, Rochester, NY, USA) were used to anesthetize the corneas throughout the procedure and pupils were dilated using phenylephrine (Bausch and Lomb) and atropine drops (Bausch and Lomb).” left out, “C. […]” for “C.”
A confocal scanning laser ophthalmoscope (cSLO) system (Heidelberg Retina Angiograph (HRA), Heidelberg Engineering, Heidelberg, Germany) was used to image the retina. FA still images were captured at 1-2 min, 10 min and 20 min after IP injection of 0.5 mL of 20% fluorescein dye (Sigma Aldrich, St. Louis, MO, USA) and were used for quantification of CNV lesion areas. […]
CNV lesion areas were quantified using late-phase FA images. […]

[5] = in vivo; cited from earlier work
CNV = conditions: intravitreal, out to 28 days, doses above and below clinical dose; cited from earlier work
[6] = system: inflammation-induced angiogenesis in the cornea; conditions: systemic or topical application; cited from earlier work
mouse VEGF-A = conditions: cited from earlier work
mouse VEGF-A, sequence (Q00731 205-317 limits assumed): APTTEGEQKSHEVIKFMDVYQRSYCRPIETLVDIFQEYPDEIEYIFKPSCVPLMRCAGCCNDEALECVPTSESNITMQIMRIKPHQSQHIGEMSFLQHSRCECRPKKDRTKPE

[7] = system: corneal neovascularization; conditions: cited from earlier work
[8] = Release of vancomycin from hydrogel; format: physicochemical; conditions: VAN encapsulated in hydrogel only
From the text: A third example is a DDS where only hydrogel is used to release vancomycin (VAN, antibiotics, 1450 Da). VAN was encapsulated in the hydrogel as a short-term release DDS (e.g., for use as a prophylactic treatment before ocular surgery).

[9] = Bioactivity of vancomycin released from hydrogel; conditions: throughout release from hydrogel
[10] = Animal modeling of vancomycin hydrogel DDS (subconjunctival injection); format: in vivo
[11] = In vitro single and dual release of DEX nanoparticles and AFL microspheres from hydrogel DDS (Example 3); format: physicochemical; conditions: first 14 days
Experimental: The DDS for single release consisted of 20 mg of DEX nanoparticles (DEX-np) suspended within a biodegradable N-isopropylacrylamide/poly(ethylene glycol)-co-(L-lactic acid) diacrylate/(NIPAAm/PEG-PLLA-DA) thermoresponsive hydrogel. The dual release consisted of 20 mg of DEX-np and 20 mg of AFL microspheres (AFL-ms) suspended within the hydrogel. DEX release in vitro, with and without AFL-ms, was quantified using NanoDrop™ OneC. Iodine-125 radiolabeled AFL was used to measure encapsulation efficiency into the hydrogel and in vitro release. The initial burst was calculated by quantifying total drug release in the first 24 hours.

bovine retina = conditions: directly after exposure to 0.1 mg/mL; cited from earlier work
retina [12] = conditions: vitreal concentration 6.67-10 mg/mL, 24 hr or 7 days after treatment; cited from earlier work
[13] = cited from earlier work

Molecule: ranibizumab
- Diameter [1]: 7.5 ± 0.4 μm
- Encapsulation Efficiency Percent ([2]; microspheres Alone): 91.3 ± 2.5%
- Initial Burst Percent ([3]; microspheres Alone): 50.3 ± 2.1%
- extension of release by hydrogel [3]: 27.2%
- reduction of initial burst by hydrogel [3]: 58%
- steady release rate ([3]; microspheres in hydrogel): 0.153 µg/day
- Initial Burst Percent ([3]; microspheres in hydrogel): 21.0 ± 2.0%
- duration of release [3]: 196 days and ~200 days
- a-wave parameters (maximal response, half-saturation intensity) versus control (retina [4]): no significant differences
- b-wave parameters versus control (retina [4]): no significant differences
- CNV lesion area compared to non-treated animals (laser-induced CNV): only had a significant decrease in lesion area at Week 12
- half-life t½ [5]: 220 h
- therapeutic effect on CNV (CNV): no therapeutic effect was observed

Molecule: bevacizumab
- therapeutic effect on CNV (CNV): no therapeutic effect was observed
- inhibition of corneal angiogenesis [6]: significantly inhibited inflammation-induced angiogenesis
- binding to mouse VEGF-A (mouse VEGF-A): binds to mouse VEGF-A
- corneal angiogenesis ([7]; sub-conjunctival injection): can significantly inhibit corneal angiogenesis
- corneal neovascularization ([7]; topical): limited corneal neovascularization

Molecule: CN[C@H](CC(C)C)C(=O)N[C@H]1C(=O)N[C@@H](CC(N)=O)C(=O)N[C@H]2C(=O)N[C@H]3C(=O)N[C@H](C(=O)N[C@H](C(=O)O)c4cc(O)cc(O)c4-c4cc3ccc4O)[C@H](O)c3ccc(c(Cl)c3)Oc3cc2cc(c3O[C@@H]2O[C@H](CO)[C@@H](O)[C@H](O)[C@H]2O[C@H]2C[C@](C)(N)[C@H](O)[C@H](C)O2)Oc2ccc(cc2Cl)[C@H]1O [VAN, vancomycin]
- duration of controlled release [8]: over 20 days
- bioactivity [9]: bioactivity was maintained throughout the release
- treatment efficacy [10]: showed treatment efficacy

Molecule: aflibercept
- Diameter [1]: 8.0 ± 0.3 μm
- Encapsulation Efficiency Percent ([2]; microspheres Alone): 44.8 ± 2.0%
- Encapsulation Efficiency Percent ([2]; microspheres in hydrogel): 44.6 ± 1.4%
- rate of release from the DDS, times less than that of ranibizumab ([3]; microsphere-hydrogel DDS): 2.3 ×
- Initial Burst Percent ([3]; microspheres Alone): 83.3 ± 2.1%
- extension of release by hydrogel [3]: 27.2%
- reduction of initial burst by hydrogel [3]: 76%
- steady release rate ([3]; microspheres in hydrogel): 0.065 µg/day
- Initial Burst Percent ([3]; microspheres in hydrogel): 20.1 ± 0.8%
- duration of release [3]: 196 days and ~200 days
- encapsulated drug remaining entrapped in hydrogel after complete degradation of microspheres ([3]; non-degradable hydrogel, end of release): 32.7±1.1%
- a-wave half-saturation intensity versus control (retina [4]): No significant difference
- half-maximal a- or b-wave response (half-saturation intensity) (retina [4]): No significant difference
- maximal a-wave response post-treatment, lower than control (retina [4]): ~40%
- maximal a-wave response, Control versus Week 1-Week 12 (retina [4]): significant difference
- CNV lesion area compared to non-treated animals (laser-induced CNV): significantly smaller CNV lesions compared to non-treated animals at Week 4 and Week 12
- release rates in the presence of DEX-np [11]: increased release rates
- decrease in maximal scotopic b-wave response (bovine retina): 43.1%
- ERG parameters (retina [12]): did not alter any ERG parameters

B1: ovalbumin (protein, UniProt P01012 2-386, looked up)
Ovalbumin: GSIGAASMEFCFDVFKELKVHHANENIFYCPIAIMSALAMVYLGAKDSTRTQINKVVRFDKLPGFGDSIEAQCGTSVNVHSSLRDILNQITKPNDVYSFSLASRLYAEERYPILPEYLQCVKELYRGGLEPINFQTAADQARELINSWVESQTNGIIRNVLQPSSVDSQTAMVLVNAIVFKGLWEKAFKDEDTQAMPFRVTEQESKPVQMMYQIGLFRVASMASEKMKILELPFASGTMSMLVLLPDEVSGLEQLESIINFEKLTEWTSSNVMEERKIKVYLPRMKMEEKYNLTSVLMAMGITDVFSSSANLSGISSAESLKISQAVHAAHAEINEAGREVVGSAEAGVDAASVSEEFRADHPFLFCIKHIATNAVLFFGRCVSP
notes: model protein (45 kDa) used in initial development of the DDS
- duration of controlled and extended release ([13]; microsphere-hydrogel DDS): approximately 200 days
- extension of release compared to microspheres alone ([13]; microspheres within hydrogel): ~30%
- residual entrapment in hydrogel ([13]; prior study): 8.01±0.76%
